Patent US20080260713

Target: T1, human regulatory myosin light chain, his-tagged
T1 chain: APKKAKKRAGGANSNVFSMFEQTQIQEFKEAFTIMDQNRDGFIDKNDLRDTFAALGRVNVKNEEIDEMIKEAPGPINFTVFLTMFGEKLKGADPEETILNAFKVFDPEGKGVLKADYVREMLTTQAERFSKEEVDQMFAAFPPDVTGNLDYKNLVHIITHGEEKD

B1: recombinant human neukinase, His-tagged (protein)
chain: MSGTSKESLGHGGLPGLGKTCLTTMDTKLNMLNEKVDQLLHFQEDVTEKLQSMCRDMGHLERGLHRLEASRAPGPGGADGVPHIDTQAGWPEVLELVRAMQQDAAQHGARLEALFRMVAAVDRAIALVGATFQKSKVADFLMQGRVPWRRGSPGDSPEENKERVEEEGGKPKHVLSTSGLQSDAREPGEESQKADVLEGTAERLPPIRASGLGADPAQAVVSPGQGDGVPGPAQAFPGHLPLPTKVEAKAPETPSENLRTGLELAPAPGRVNVVSPSLEVAPGAGQGASSSRPDPEPLEEGTRLTPGPGPQCPGPPGLPAQARATHSGGETPPRISIHIQEMDTPGEMLMTGRGSLGPTLTTEAPAAAQPGKQGPPGTGRCLQAPGTEPGEQTPEGARELSPLQESSSPGGVKAEEEQRAGAEPGTRPSLARSDDNDHEVGALGLQQGKSPGAGNPEPEQDCAARAPVRAEAVRRMPPGAEAGSVVLDDSPAPPAPFEHRVVSVKETSISAGYEVCQHEVLGGGRFGQVHRCTEKSTGLPLAAKIIKVKSAKDREDVKNEINIMNQLSHVNLIQLYDAFESKHSCTLVMEYVDGGELFDRITDEKYHLTELDVVLFTRQICEGVHYLHQHYILHLDLKPENILCVNQTGHQIKIIDFGLARRYKPREKLKVNFGTPEFLAPEVVNYEFVSFPTDMWSVGVITYMLLSGLSPFLGETDAETMNFIVNCSWDFDADTFEGLSEEAKDFVSRLLVKEKSCRMSATQCLKHEWLNNLPAKASRSKTRLKSQLLLQKYIAQRKWKKHFYVVTAANRLRKFPTSP
- rate of decrease of NADH absorbance at 340 nm (PK/LDH-coupled assay; 90 uM RLC, 1 uM CaM, 0.3 uM CaCl2, 100 nM neukinase): ΔOD/min/nmol nukinase=0.0152/min/nmol neukinase
